According to PMC9333989:

What was measured:
Assay in all cases: co-IP; FFLISA as a1; total Lck signal of all sucrose gradient fractions normalised to CD4 signal, given relative to WT
[1] = biological target: mouse CD4 LL mutant (L437A + L438A) (mouse) (UniProt P06332)
[2] = biological target: mouse CD4 TP mutant (TMD + Palm: G403V, G406L, C418S, C421S) (mouse) (UniProt P06332)
[3] = biological target: mouse CD4 H mutant (total ICD helix mutation, aa430–442 to …) (mouse) (UniProt P06332)
[4] = biological target: mouse CD4 HC mutant (total helix + clasp: aa430–442 replaced, C444S, C446S) (mouse) (UniProt P06332)
[5] = biological target: mouse CD4 Clasp mutant (C444S, C446S) (mouse) (UniProt P06332)

total CD4–Lck abundance, percent of WT [1]: 49 % of WT
total CD4–Lck abundance, percent of WT [2]: 123 % of WT
CD4−Lck association, percent of WT [3]: 25 % of WT
CD4−Lck association, percent of WT [4]: 14 % of WT
total CD4–Lck abundance, percent of WT [5]: 31 % of WT
Substance: Lck (Src kinase) (from UniProt P06240 1-509) (enzyme)
